# Results published in the supplement of paper PMC10724198.
# ± gives the standard deviation of the averaged measurements.
# Assays:
# Saccharomyces cerevisiae [1] = assay: protein stability index of tFT-peptide fusion (C-terminal peptide) (PSI (0-1 scale)); higher = more stable (slower turnover)
# Procedure: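 MPS profiling in S. cerevisiae of the tFT-X12 degron library: putative degron peptides plus stable controls, 12 aa, fused to the C-terminus of a sfGFP-mCherry timer. Cells are FACS-sorted into 8 mCherry/sfGFP bins and deep-sequenced. PSI runs from 0 (unstable) to 1 (stable). Backgrounds are wild type, das1Δ and doa10Δ at 30 °C, and wild type, das1Δ, cdc34-1 and cdc53-1 at 37 °C; 2-3 technical replicates each.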
# Saccharomyces cerevisiae [2] = assay: as above; conditions: genetic background: wild type; temperature: 30 C
# [3] = genetic background: cdc34-1, temperature: 37 C
# [4] = genetic background: cdc53-1, temperature: 37 C
# [5] = genetic background: das1 deletion, temperature: 30 C
# [6] = genetic background: das1 deletion, temperature: 37 C
# [7] = genetic background: doa10 deletion, temperature: 30 C
# [8] = genetic background: wild type, temperature: 30 C
# [9] = genetic background: wild type, temperature: 37 C
# 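Also: PSI is a weighted mean of sequencing reads over stability bins, variants kept only with over 10 reads, mCherry proximal and sfGFP distal, peptide attached via GGGS linker.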
Sequence,protein stability index (Saccharomyces cerevisiae [1]; [3]),protein stability index (Saccharomyces cerevisiae [1]; [4]),protein stability index (Saccharomyces cerevisiae [1]; [5]),protein stability index (Saccharomyces cerevisiae [1]; [6]),protein stability index (Saccharomyces cerevisiae [1]; [7]),protein stability index (Saccharomyces cerevisiae [1]; [8]),protein stability index (Saccharomyces cerevisiae [1]; [9]),protein stability index (Saccharomyces cerevisiae [2])
MVVSLVLCFWAS,0.248 ± 0.026,0.331 ± 0.069,0.257 ± 0.024,0.409 ± 0.016,0.222 ± 0.0091,0.244 ± 0.018,0.414 ± 0.055,0.255 ± 0.045
MWRWASKCRFSM,0.668 ± 0.025,0.706 ± 0.015,0.634 ± 0.015,0.759 ± 0.0097,0.231 ± 0.012,0.245 ± 0.022,0.515 ± 0.047,0.367 ± 0.011
NFSALECKVQLT,0.747 ± 0.076,0.727 ± 0.018,0.625 ± 0.018,0.725 ± 0.017,0.647 ± 0.042,0.653 ± 0.026,0.689 ± 0.0082,0.75 ± 0.052
NFTDMGRSLYIN,0.592 ± 0.056,0.788 ± 0.018,0.663 ± 0.015,0.775 ± 0.0087,0.166 ± 0.0031,0.208 ± 0.054,0.434 ± 0.024,0.279 ± 0.057
NHKNANAATLIN,0.645 ± 0.053,0.7192 ± 0.0061,0.641 ± 0.036,0.7266 ± 0.0038,0.268 ± 0.016,0.352 ± 0.038,0.6016 ± 0.0051,0.4548 ± 0.0018
NVVIGLHLLVYI,0.205 ± 0.021,0.313 ± 0.041,0.212 ± 0.047,0.419 ± 0.017,0.189 ± 0.022,0.227 ± 0.014,0.388 ± 0.018,0.326 ± 0.049
NYVVFVRGIKIT,0.585 ± 0.039,0.609 ± 0.02,0.533 ± 0.026,0.633 ± 0.011,0.104 ± 0.0022,0.114 ± 0.016,0.177 ± 0.016,0.186 ± 0.1
PCVLAIYVWIRS,0.0479 ± 0.016,0.169 ± 0.019,0.154 ± 0.037,0.2704 ± 0.0022,0.083 ± 0.016,0.107 ± 0.016,0.173 ± 0.011,0.163 ± 0.054
PDRSTILHISGF,0.721 ± 0.021,0.7606 ± 0.001,0.642 ± 0.034,0.744 ± 0.022,0.644 ± 0.037,0.633 ± 0.0087,0.728 ± 0.023,0.699 ± 0.019
PETSRFALNEWG,0.709 ± 0.04,0.748 ± 0.018,0.665 ± 0.0095,0.755 ± 0.0086,0.674 ± 0.043,0.68 ± 0.02,0.717 ± 0.011,0.727 ± 0.059
PFFFSFILVLFW,0.172 ± 0.0087,0.172 ± 0.036,0.219 ± 0.0092,0.286 ± 0.034,0.2355 ± 0.0021,0.186 ± 0.035,0.244 ± 0.02,0.264 ± 0.028
PFFHVFLLLLLI,0.153 ± 0.011,0.1359 ± 0.00032,0.188 ± 0.022,0.258 ± 0.0067,0.313 ± 0.021,0.154 ± 0.017,0.213 ± 0.0042,0.195 ± 0.0064
PIKIYGYLTTVV,0.597 ± 0.024,0.644 ± 0.023,0.517 ± 0.032,0.653 ± 0.02,0.474 ± 0.032,0.475 ± 0.02,0.6337 ± 0.0023,0.523 ± 0.045
PISLYFVWFFFF,0.242 ± 0.0081,0.363 ± 0.033,0.251 ± 0.024,0.369 ± 0.04,0.15 ± 0.011,0.147 ± 0.0072,0.269 ± 0.015,0.195 ± 0.074
PLFPLLGLLFFF,0.595 ± 0.029,0.6147 ± 0.0041,0.513 ± 0.032,0.592 ± 0.02,0.472 ± 0.032,0.496 ± 0.039,0.558 ± 0.018,0.461 ± 0.046
PPGLLPPCLLVV,0.358 ± 0.027,0.373 ± 0.0093,0.307 ± 0.035,0.444 ± 0.02,0.2485 ± 0.00054,0.301 ± 0.028,0.395 ± 0.011,0.39 ± 0.05
PPLPPVCPSPSL,0.665 ± 0.031,0.74 ± 0.027,0.658 ± 0.0035,0.7274 ± 0.0068,0.667 ± 0.023,0.685 ± 0.028,0.714 ± 0.004,0.485 ± 0.0061
PPPNSSTSPPCS,0.6572 ± 0.003,0.725 ± 0.017,0.661 ± 0.036,0.683 ± 0.011,0.681 ± 0.029,0.687 ± 0.0096,0.677 ± 0.013,0.196 ± 0.015
PPRRCFPLLLFF,0.44 ± 0.094,0.4471 ± 0.0019,0.445 ± 0.022,0.546 ± 0.01,0.208 ± 0.0085,0.209 ± 0.014,0.331 ± 0.012,0.235 ± 0.036
PPSPVPPIWYLA,0.636 ± 0.037,0.7595 ± 0.0041,0.707 ± 0.017,0.753 ± 0.029,0.233 ± 0.0083,0.261 ± 0.045,0.417 ± 0.019,0.372 ± 0.0055
PRQGGDFVARVG,0.691 ± 0.0076,0.726 ± 0.024,0.638 ± 0.016,0.7341 ± 0.0065,0.631 ± 0.027,0.641 ± 0.015,0.721 ± 0.022,0.7001 ± 0.0014
PRSFFYIQFVFA,0.301 ± 0.016,0.369 ± 0.025,0.233 ± 0.016,0.431 ± 0.011,0.194 ± 0.011,0.224 ± 0.022,0.375 ± 0.014,0.324 ± 0.0069
PSDVLERVIRLL,0.616 ± 0.027,0.714 ± 0.023,0.647 ± 0.019,0.7309 ± 0.00081,0.136 ± 0.0023,0.168 ± 0.01,0.277 ± 0.051,0.265 ± 0.026
PSLPPLPPFAAL,0.73 ± 0.0098,0.7412 ± 0.0013,0.676 ± 0.051,0.75 ± 0.021,0.663 ± 0.0099,0.661 ± 0.02,0.72 ± 0.024,0.749 ± 0.052
PSPVPPPSSPSP,0.682 ± 0.029,0.728 ± 0.027,0.67 ± 0.026,0.717 ± 0.022,0.674 ± 0.021,0.684 ± 0.029,0.7075 ± 0.0063,0.71 ± 0.012
PSPVRSSYASTL,0.6664 ± 0.0066,0.704 ± 0.024,0.6396 ± 0.0033,0.7222 ± 0.0029,0.6532 ± 0.0047,0.665 ± 0.02,0.68992 ± 0.00058,0.711 ± 0.049
PSVRCVVACFIN,0.241 ± 0.021,0.584 ± 0.13,0.464 ± 0.02,0.576 ± 0.0068,0.137 ± 0.028,0.172 ± 0.039,0.165 ± 0.015,0.277 ± 0.015
PVGRSVFFVWFL,0.65 ± 0.071,0.7009 ± 0.0022,0.587 ± 0.019,0.744 ± 0.029,0.3522 ± 0.0035,0.367 ± 0.016,0.554 ± 0.013,0.458 ± 0.019
PVKGTMIKAKNT,0.659 ± 0.088,0.73 ± 0.027,0.607 ± 0.026,0.71 ± 0.0026,0.184 ± 0.017,0.193 ± 0.024,0.341 ± 0.043,0.354 ± 0.068
PVLSLPPLSSPP,0.682 ± 0.032,0.7318 ± 0.0057,0.682 ± 0.0089,0.7244 ± 0.0058,0.691 ± 0.034,0.691 ± 0.02,0.7044 ± 0.0064,0.7068 ± 0.0043
